Values quoted from earlier work as cited in article PMC5490247.
Like-named read-outs stand apart in the source and are kept apart here.

Columns and labels:
IL-6R (Homo sapiens) [1] = target: IL-6R (Homo sapiens) (UniProt P08887)
IL-6R (Homo sapiens) [2] = target: IL-6R (Homo sapiens) (UniProt P08887); remark: listed apart in the source

Sequence of UniProt P08887 (P08887 20-355): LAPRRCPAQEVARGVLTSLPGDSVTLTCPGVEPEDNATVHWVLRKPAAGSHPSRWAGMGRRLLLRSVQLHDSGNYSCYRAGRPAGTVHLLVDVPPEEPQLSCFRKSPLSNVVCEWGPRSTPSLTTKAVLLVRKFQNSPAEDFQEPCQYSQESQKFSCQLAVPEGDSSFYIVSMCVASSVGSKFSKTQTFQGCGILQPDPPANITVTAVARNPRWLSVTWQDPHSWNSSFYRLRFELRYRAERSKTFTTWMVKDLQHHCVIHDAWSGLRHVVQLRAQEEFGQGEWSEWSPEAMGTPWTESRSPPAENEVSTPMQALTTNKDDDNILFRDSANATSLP

| Kd (IL-6R (Homo sapiens) [1]) [nM] | Kd (IL-6R (Homo sapiens) [2]) [nM] | Substance |
| --- | --- | --- |
| 1 |  | IL-6 (from UniProt P05231) |
|  | 2.54 | Tocilizumab |
